# Assay results published in patent US20030108521A1 (published 2003).
# T1: F/IX delta 111-140 (human; human adenovirus type 5, UniProt P03372 553-595)
# T1 construct: domain: F domain; N-terminally F-tagged pIX truncated after residue 110 (lacks half of the leucine-repeat)
# T1 sequence: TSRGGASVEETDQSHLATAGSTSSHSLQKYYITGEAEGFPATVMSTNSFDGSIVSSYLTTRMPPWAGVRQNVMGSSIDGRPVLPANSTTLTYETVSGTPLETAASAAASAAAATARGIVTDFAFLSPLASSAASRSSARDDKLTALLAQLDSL
# B1: non-tagged wild type adenovirus type 5 protein IX (other)
# chain: MSTNSFDGSIVSSYLTTRMPPWAGVRQNVMGSSIDGRPVLPANSTTLTYETVSGTPLETAASAAASAAAATARGIVTDFAFLSPLASSAASRSSARDDKLTALLAQLDSLTRELNVVSQQLLDLRQQVSALKASSPPNAV
# notes: tested in cell extracts; also called wt pIX; untagged wt pIX
# Target: T1, F/IX delta 111-140
# Assay: co-immunoprecipitation with anti-F antibody from A549 cell extracts, Western blot with anti-pIX
binder,measurement,value
B1,binding result,no binding
